Biological target: NKG2D ligands on NKG2D ligand-expressing cells
Assay: summary of the Examples; assay not given

hNKG2Dx2-hIgG1 (Fc fusion)
fold improved binding avidity against monomeric NKG2D-Fc chimeras: < 100 fold
